Series [1] can be described thus: Microtiter hyaluronidase activity assay with biotinylated-hyaluronic acid. The class given is biochemical. The conditions noted are these: Table 6, 72 hour post transfection supernatant.
Series [2] concerns CHO-S cells. Nature of the series: PI-PLC treatment of expressing cells, Western blot of media and cells. The class given is cell-based, Chinese Hamster. Particulars: cells incubated with PI-PLC for 2 hours. The method, boiled down:
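CHO-S cells transiently expressing rHuPH20 or C-terminal truncation mutants were treated with PI-PLC (0.5 units/well, or 3.0 units/dish in serum/detergent-free medium) for 2 h at 37 °C after 48–72 h expression. Untreated and treated media and cell extracts were analysed separately by Western blot for PH20.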

The nature of series [3]: Triton X-114 partition assay. The class given is physicochemical. The conditions noted are these: partition into aqueous phase of Triton X-114 at 37° C.
For series [4], the system named is CHO-S cells. Nature of the series: Western blot analysis of PH20 expression in media and cells after transient expression. Particulars: media versus cells. The class given is cell-based, Chinese Hamster. The procedure, abridged: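 CHO-S cells were transiently transfected with mutant PH20-HZ24 plasmids using GeneJuice and expressed for 48-72 h at 37 °C, 5% CO2. Media and cells were harvested separately, with PI-PLC treatment used to release GPI-anchored protein. Non-reduced samples were blotted with rabbit anti-PH20 (0.5 μg/mL), and a band near 66 kDa was scored as PH20.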

B1: SPAM1-STLS: C-terminally truncated human PH20, precursor 490 aa (SEQ ID NO:13), mature 455 aa (SEQ ID NO:65) (protein, listed as Homo sapiens)
chain 1: MGVLKFKHIFFRSFVKSSGVSQIVFTFLLIPCCLTLNFRAPPVIPNVPFLWAWNAPSEFCLGKFDEPLDMSLFSFIGSPRINATGQGVTIFYVDRLGYYPYIDSITGVTVNGGIPQKISLQDHLDKAKKDITFYMPVDNLGMAVIDWEEWRPTWARNWKPKDVYKNRSIELVQQQNVQLSLTEATEKAKQEFEKAGKDFLVETIKLGKLLRPNHLWGYYLFPDCYNHHYKKPGYNGSCFNVEIKRNDDLSWLWNESTALYPSIYLNTQQSPVAATLYVRNRVREAIRVSKIPDAKSPLPVFAYTRIVFTDQVLKFLSQDELVYTFGETVALGASGIVIWGTLSIMRSMKSCLLLDNYMETILNPYIINVTLAAKMCSQVLCQEQGVCIRKNWNSSDYLHLNPDNFAIQLEKGGKFTVRGKPTLEDLEQFSEKFYCSCYSTLSCKEKADVKDTDAVDVCIADGVCIDAFLKPPMETEEPQIFYNASPSTLS
chain 2: LNFRAPPVIPNVPFLWAWNAPSEFCLGKFDEPLDMSLFSFIGSPRINATGQGVTIFYVDRLGYYPYIDSITGVTVNGGIPQKISLQDHLDKAKKDITFYMPVDNLGMAVIDWEEWRPTWARNWKPKDVYKNRSIELVQQQNVQLSLTEATEKAKQEFEKAGKDFLVETIKLGKLLRPNHLWGYYLFPDCYNHHYKKPGYNGSCFNVEIKRNDDLSWLWNESTALYPSIYLNTQQSPVAATLYVRNRVREAIRVSKIPDAKSPLPVFAYTRIVFTDQVLKFLSQDELVYTFGETVALGASGIVIWGTLSIMRSMKSCLLLDNYMETILNPYIINVTLAAKMCSQVLCQEQGVCIRKNWNSSDYLHLNPDNFAIQLEKGGKFTVRGKPTLEDLEQFSEKFYCSCYSTLSCKEKADVKDTDAVDVCIADGVCIDAFLKPPMETEEPQIFYNASPSTLS
modifications: HuPH20 precursor 1-490; mature HuPH20 36-490
Take B1: the “pH 5.5 Activity” value in series [1] (pH 5.5) turned out to be 1.2375 Units/ml. In series [1] (pH 7.4), the “pH 7.4 Activity” value is reported as 0.819 Units/ml. In addition, in series [2], the “Expressed in Media Following Addition of PI-PLC” value is “Initially in media”. For the same molecule, the Soluble result in series [3] is “YES”. In series [4], the “Expressed in Media” value is “YES”.

(Values after patent publication US9284543B2, “Neutral active soluble truncated PH20 polypeptides and uses thereof” (Halozyme, Inc., priority 2008, dated 2016).)
